Data from patent US6521594 (LA JOLLA CANCER RESEARCH FOUNDATION, dated 2003).
Starred links: 1 amine or outer side, 2 acyl side, 3 side chain; linkers in the order of their positions; H or OH if unused. Positions of bridges follow the written chain, without caps; N, C: chain ends. Non-standard residues stand in square brackets, D forms with d. Primed or numbered codes have the meaning given here. No end group written: not given here. Tyr(OMe)″ = O-methyl-tyrosine (Y-OMe, TyrOMe, O-Me-Tyr), COc1ccc(C[C@H](N[*:1])C(=O)[*:2])cc1; Tyr(OMe) = O-methyl-tyrosine (O-Me-Tyr, Y-OMe), COc1ccc(C[C@H](N[*:1])C(=O)[*:2])cc1; Tyr(Me) = O-methyl-tyrosine (Y-OMe, O-Me-Tyr), COc1ccc(C[C@H](N[*:1])C(=O)[*:2])cc1; t‑but‑am‑Pmp = tert-butyl-substituted beta,beta-pentamethylenecysteine; Tyr(OMe)(3) = O-methyl-tyrosine, COc1ccc(C[C@H](N[*:1])C(=O)[*:2])cc1; Cys(β,β-pentamethylene) = O=C([C@@H](N[*:1])C1(S[*:3])CCCCC1)[*:2]; O‑Me‑Tyr = O-methyl-tyrosine, COc1ccc(C[C@H](N[*:1])C(=O)[*:2])cc1; Pen = CC(C)(S)[C@H](N)C(=O)O; code O = not defined here

Assays:
[1] = target: T1, Platelet glycoprotein IIb/IIIa (human, UniProt P08514 32-1039; P05106 27-788); assay: cell-based or functional assay
Vitronectin receptor = target: T2, Vitronectin receptor (human, UniProt P06756 31-1048; P05106 27-788); assay: competition, ELISA or liposome assay, vitronectin coated
T2 construct: mature; also called Vn-R; VnR

[2] = target: T1, Platelet glycoprotein IIb/IIIa; assay: competition, ELISA or liposome assay
[3] = target: T1, Platelet glycoprotein IIb/IIIa; assay: cell-based or functional assay; remark: listed apart in the source
[4] = target: T1, Platelet glycoprotein IIb/IIIa; assay: cell-based or functional assay; remark: listed apart in the source
Fibronectin receptor = target: T3, Fibronectin receptor (human, UniProt P08648 42-1049; P05556 21-798); assay: competitive ELISA, fibronectin coated
T3 construct: mature; Purified on a 110 kd fibronectin fragment column; also called Fn-R; FnR
T3 sequence (P08648 42-1049, chain 1 of 2): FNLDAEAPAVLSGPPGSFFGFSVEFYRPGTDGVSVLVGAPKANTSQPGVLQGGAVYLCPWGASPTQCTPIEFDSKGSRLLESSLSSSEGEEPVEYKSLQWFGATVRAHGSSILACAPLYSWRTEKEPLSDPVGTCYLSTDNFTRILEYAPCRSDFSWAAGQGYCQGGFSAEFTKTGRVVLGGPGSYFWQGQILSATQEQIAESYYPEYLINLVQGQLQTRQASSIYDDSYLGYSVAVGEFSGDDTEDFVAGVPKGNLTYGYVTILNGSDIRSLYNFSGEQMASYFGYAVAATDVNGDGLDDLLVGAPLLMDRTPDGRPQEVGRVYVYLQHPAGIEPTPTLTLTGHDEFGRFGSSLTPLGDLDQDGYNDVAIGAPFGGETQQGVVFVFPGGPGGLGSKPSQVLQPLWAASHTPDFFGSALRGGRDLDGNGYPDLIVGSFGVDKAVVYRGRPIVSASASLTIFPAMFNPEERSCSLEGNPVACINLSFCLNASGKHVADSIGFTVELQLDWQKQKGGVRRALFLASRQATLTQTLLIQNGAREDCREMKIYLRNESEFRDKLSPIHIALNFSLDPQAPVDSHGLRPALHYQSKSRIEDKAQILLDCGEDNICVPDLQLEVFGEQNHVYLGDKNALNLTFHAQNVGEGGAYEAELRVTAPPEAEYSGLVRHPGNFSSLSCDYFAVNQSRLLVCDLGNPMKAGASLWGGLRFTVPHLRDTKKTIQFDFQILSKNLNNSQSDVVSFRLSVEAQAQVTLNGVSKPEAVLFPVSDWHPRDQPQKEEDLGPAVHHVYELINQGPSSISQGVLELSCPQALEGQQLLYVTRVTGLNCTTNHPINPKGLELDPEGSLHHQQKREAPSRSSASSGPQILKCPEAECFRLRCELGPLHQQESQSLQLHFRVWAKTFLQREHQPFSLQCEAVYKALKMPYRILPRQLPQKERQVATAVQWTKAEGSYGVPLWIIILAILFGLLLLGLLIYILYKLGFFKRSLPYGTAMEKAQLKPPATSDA
T3 sequence (P05556 21-798, chain 2 of 2): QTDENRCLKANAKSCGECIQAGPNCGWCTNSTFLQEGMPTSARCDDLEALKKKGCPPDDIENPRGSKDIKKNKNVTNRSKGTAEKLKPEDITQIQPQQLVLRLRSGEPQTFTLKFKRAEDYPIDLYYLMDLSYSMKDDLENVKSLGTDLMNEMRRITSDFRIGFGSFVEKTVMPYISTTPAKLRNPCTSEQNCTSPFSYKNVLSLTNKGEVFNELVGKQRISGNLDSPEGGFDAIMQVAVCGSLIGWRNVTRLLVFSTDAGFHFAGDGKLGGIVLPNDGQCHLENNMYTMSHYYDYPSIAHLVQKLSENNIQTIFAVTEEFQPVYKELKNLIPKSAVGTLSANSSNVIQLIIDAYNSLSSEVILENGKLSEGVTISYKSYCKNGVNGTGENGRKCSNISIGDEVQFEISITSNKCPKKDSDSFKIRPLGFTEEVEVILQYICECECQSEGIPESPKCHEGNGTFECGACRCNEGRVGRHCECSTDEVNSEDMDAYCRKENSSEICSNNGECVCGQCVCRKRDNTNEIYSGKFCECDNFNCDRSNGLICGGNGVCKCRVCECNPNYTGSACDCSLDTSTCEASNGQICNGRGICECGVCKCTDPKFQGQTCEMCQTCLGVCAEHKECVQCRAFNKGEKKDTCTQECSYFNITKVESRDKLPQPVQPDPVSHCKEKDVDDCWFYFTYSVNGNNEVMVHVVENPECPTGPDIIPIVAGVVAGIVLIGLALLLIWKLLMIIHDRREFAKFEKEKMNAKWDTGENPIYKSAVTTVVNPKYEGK

T2 sequence (P06756 31-1048, chain 1 of 2): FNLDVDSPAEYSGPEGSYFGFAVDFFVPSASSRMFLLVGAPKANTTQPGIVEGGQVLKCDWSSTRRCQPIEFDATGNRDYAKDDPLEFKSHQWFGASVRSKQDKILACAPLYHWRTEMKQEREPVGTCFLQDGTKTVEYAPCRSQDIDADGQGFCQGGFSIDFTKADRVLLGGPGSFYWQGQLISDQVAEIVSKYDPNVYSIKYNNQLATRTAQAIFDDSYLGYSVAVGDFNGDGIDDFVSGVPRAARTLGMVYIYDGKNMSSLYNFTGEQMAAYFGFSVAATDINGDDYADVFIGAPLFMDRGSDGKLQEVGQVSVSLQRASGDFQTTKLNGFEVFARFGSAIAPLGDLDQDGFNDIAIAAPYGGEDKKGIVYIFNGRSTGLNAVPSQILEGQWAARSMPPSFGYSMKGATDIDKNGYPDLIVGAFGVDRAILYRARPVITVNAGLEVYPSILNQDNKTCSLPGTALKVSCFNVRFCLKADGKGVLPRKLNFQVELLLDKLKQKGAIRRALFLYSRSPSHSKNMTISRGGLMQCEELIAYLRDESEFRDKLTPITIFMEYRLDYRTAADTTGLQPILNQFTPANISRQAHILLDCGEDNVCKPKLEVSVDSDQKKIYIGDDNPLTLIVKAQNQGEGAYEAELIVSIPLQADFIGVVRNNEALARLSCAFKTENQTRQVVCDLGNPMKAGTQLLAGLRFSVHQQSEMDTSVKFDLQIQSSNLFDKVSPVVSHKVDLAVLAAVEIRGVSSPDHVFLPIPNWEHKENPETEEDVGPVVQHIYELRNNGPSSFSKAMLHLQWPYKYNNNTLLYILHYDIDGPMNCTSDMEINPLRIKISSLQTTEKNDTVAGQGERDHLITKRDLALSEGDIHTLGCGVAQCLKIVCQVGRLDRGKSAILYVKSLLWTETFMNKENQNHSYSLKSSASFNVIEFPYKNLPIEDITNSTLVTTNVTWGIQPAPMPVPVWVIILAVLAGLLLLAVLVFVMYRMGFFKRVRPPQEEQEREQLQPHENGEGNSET
T2 sequence (P05106 27-788, chain 2 of 2): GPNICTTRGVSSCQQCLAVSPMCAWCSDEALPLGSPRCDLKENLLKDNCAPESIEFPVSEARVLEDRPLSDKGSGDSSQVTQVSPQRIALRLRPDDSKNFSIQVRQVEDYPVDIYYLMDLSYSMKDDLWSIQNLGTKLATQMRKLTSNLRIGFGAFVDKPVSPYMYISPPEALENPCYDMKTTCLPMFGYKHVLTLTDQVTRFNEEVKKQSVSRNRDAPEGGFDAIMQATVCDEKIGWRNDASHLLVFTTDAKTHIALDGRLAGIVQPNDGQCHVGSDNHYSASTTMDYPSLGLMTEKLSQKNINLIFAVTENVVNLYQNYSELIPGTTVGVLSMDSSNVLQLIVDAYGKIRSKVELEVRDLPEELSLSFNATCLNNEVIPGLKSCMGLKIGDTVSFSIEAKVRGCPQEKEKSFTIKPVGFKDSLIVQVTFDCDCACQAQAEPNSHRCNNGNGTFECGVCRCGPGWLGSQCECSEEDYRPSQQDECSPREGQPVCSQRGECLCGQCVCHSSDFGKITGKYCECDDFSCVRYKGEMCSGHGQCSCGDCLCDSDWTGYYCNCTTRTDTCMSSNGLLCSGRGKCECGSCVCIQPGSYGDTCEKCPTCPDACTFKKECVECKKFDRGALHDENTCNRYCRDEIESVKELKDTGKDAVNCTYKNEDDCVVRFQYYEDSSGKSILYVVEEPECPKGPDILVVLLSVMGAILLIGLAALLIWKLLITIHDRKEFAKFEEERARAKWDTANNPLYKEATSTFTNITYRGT

Ac-CDPRGD[Tyr(OMe)″]RC-NH2 (disulfide 1-9 (inferred)) [AcCDPRGD(TyrOMe)RC-NH2]
Inhibition of Platelet Aggregation, IC50 [1]: 3000 nM

B1: R(t-but-am-Pmp)GHRGDLRCR-2 (peptide)
peptide: R[t‑but‑am‑Pmp]GHRGDLRCR
modifications: disulfide 2-10; not fully specified; printed as R(t-but-am-Pmp)GHRGDLRCR-2; also: second HPLC peak, configuration not assigned
IC50 (Vitronectin receptor): 3700 nM | IC50 [2]: 60 nM

R[Cys(β,β-pentamethylene)]GHRGD[O‑Me‑Tyr]RCR (disulfide 2-10, also called R(Pmc)GHRGD(Y-OMe)RCR; 5O) [R(Pmc)GHRGD(O-Me-Tyr)RCR]
IC50 [2]: 60 nM

R[Pen]GHRGDWRCR (disulfide 2-10, also called 4Q) [R(Pen)GHRGDWRCR]
IC50 [2]: 800 nM | IC50 (µM) Human Platelet Aggregation [3]: 3.3 µM

R[Cys(β,β-pentamethylene)]GHRGDWRCR (disulfide 2-10; not fully specified; printed as R(am-Pmp)GHRGDWRCR-1) [R(am-Pmp)GHRGDWRCR-1]
IC50 [2]: 60 nM

R[Cys(β,β-pentamethylene)]GHRGD[Tyr(Me)][code O]CR (disulfide 2-10; reading uncertain; also: printed as R(Pmc)GHRGD(O-Me-Tyr)OCR) [R(Pmc)GHRGD(O-Me-Tyr)OCR]
IC50 [2]: 7 nM

R[Cys(β,β-pentamethylene)]GHRGDLRCR (disulfide 2-10; not fully specified; printed as R(am-Pmp)GHRGDLRCR-1) [R(am-Pmp)GHRGDLRCR-1]
IC50 [2]: 400 nM

B2: Ac(Pmc)GHRGD(O-Me-Tyr)RC-NH2 (peptide)
peptide: Ac-[Cys(β,β-pentamethylene)]GHRGD[Tyr(OMe)]RC-NH2
modifications: disulfide 1-9
SMILES: COc1ccc(C[C@@H]2NC(=O)[C@H](CC(=O)O)NC(=O)CNC(=O)[C@H](CCCNC(=N)N)NC(=O)[C@H](Cc3c[nH]cn3)NC(=O)CNC(=O)[C@@H](NC(C)=O)C3(CCCCC3)SSC[C@@H](C(N)=O)NC(=O)[C@H](CCCNC(=N)N)NC2=O)cc1
IC50 (Vitronectin receptor): 10000 nM | IC50 [2]: 400 nM

FRGDSPDG
IC50 (Vitronectin receptor): 40 nM | IC50, ADP-Stimulated Aggregation [4]: 110000 nM | IC50 (Fibronectin receptor): 2400 nM

VRGDSPDG
IC50 (Vitronectin receptor): 240 nM | IC50 [2]: 270 nM | IC50, ADP-Stimulated Aggregation [4]: 92000 nM | IC50 (Fibronectin receptor): 40 nM

T[Cys(β,β-pentamethylene)]GHRGD[Tyr(OMe)(3)]RCR (disulfide 2-10; not fully specified; printed as T(Pmc)GHRGD(O-Me-Tyr)RCR) [T(Pmc)GHRGD(O-Me-Tyr)RCR]
IC50 (Vitronectin receptor): 10000 nM | IC50 (Fibronectin receptor): 10000 nM

R[Pen]GRGDTPCA (disulfide 2-9) [R(Pen)GRGDTPCA]
IC50 (Vitronectin receptor): 30 nM | IC50, ADP-Stimulated Aggregation [4]: 7000 nM | IC50 (Fibronectin receptor): 80 nM
